These are literature values, as cited in publication PMC7289715.

The Kd is the constant that tells how readily two partners part at equilibrium.

In the data set the target is Spike protein (SARS-CoV-2) (UniProt P0DTC2).

In the case of CD147 (from UniProt P35613), the Kd was 185 nM.
